± gives the uncertainty stated by the source.
B1: CD2-associated protein, residues 1 to 59; numbered along this chain, Q9Y5K6 (parent)
chain: MVDYIVEYDYDAVHDDELTIRVGEIIRNVKKLQEEGWLEGELNGRRGMFPDNFVKEIKR

Variants of: B1
Assay: abundance fitness (aPCA) (normalised: wild type 0, dead -1); higher = more abundant; growth selection in yeast, the domain comes from the species named
Conditions: Homo sapiens

Going from MVDYIYEYDYDAVHDDELTIRVGEIIRNVKKLQEEGWLEGELNGRRGMFPDNFVKEIKR [V6Y] to MVDYIREYDYDAVHDDELTIRVGEIIRNVKKLQEEGWLEGELNGRRGMFPDNFVKEIKR [V6R], the abundance fitness falls from -0.52 ± 0.14 to -0.875 ± 0.12.

First: MVDYINEYDYDAVHDDELTIRVGEIIRNVKKLQEEGWLEGELNGRRGMFPDNFVKEIKR [V6N]
Second: MVDYISEYDYDAVHDDELTIRVGEIIRNVKKLQEEGWLEGELNGRRGMFPDNFVKEIKR [V6S]
The abundance fitness of the first is lower: -1.04 ± 0.31 for the first, -0.363 ± 0.054 for the second.

MVDYIPEYDYDAVHDDELTIRVGEIIRNVKKLQEEGWLEGELNGRRGMFPDNFVKEIKR [V6P] and MVDYIEEYDYDAVHDDELTIRVGEIIRNVKKLQEEGWLEGELNGRRGMFPDNFVKEIKR [V6E] are within error of each other in abundance fitness: -1.2 ± 0.39 for the first, -0.96 ± 0.33 for the second.

Going from MVDYIFEYDYDAVHDDELTIRVGEIIRNVKKLQEEGWLEGELNGRRGMFPDNFVKEIKR [V6F] to MVDYIHEYDYDAVHDDELTIRVGEIIRNVKKLQEEGWLEGELNGRRGMFPDNFVKEIKR [V6H], the abundance fitness falls from -0.483 ± 0.13 to -0.832 ± 0.2.

Compared with MVDYIMEYDYDAVHDDELTIRVGEIIRNVKKLQEEGWLEGELNGRRGMFPDNFVKEIKR [V6M], MVDYIAEYDYDAVHDDELTIRVGEIIRNVKKLQEEGWLEGELNGRRGMFPDNFVKEIKR [V6A] is higher in abundance fitness: -0.795 ± 0.2 for the first, -0.08 ± 0.063 for the second.

MVDYIGEYDYDAVHDDELTIRVGEIIRNVKKLQEEGWLEGELNGRRGMFPDNFVKEIKR [V6G] and MVDYITEYDYDAVHDDELTIRVGEIIRNVKKLQEEGWLEGELNGRRGMFPDNFVKEIKR [V6T] are within error of each other in abundance fitness: -0.438 ± 0.066 for the first, -0.367 ± 0.082 for the second.

First: MVDYIKEYDYDAVHDDELTIRVGEIIRNVKKLQEEGWLEGELNGRRGMFPDNFVKEIKR [V6K]
Second: GVDYIVEYDYDAVHDDELTIRVGEIIRNVKKLQEEGWLEGELNGRRGMFPDNFVKEIKR [M1G]
The abundance fitness of the first is lower: -0.579 ± 0.18 for the first, -0.14 ± 0.14 for the second.

NVDYIVEYDYDAVHDDELTIRVGEIIRNVKKLQEEGWLEGELNGRRGMFPDNFVKEIKR [M1N] and RVDYIVEYDYDAVHDDELTIRVGEIIRNVKKLQEEGWLEGELNGRRGMFPDNFVKEIKR [M1R] are within error of each other in abundance fitness: -0.425 ± 0.34 for the first, -0.083 ± 0.12 for the second.

Compared with CVDYIVEYDYDAVHDDELTIRVGEIIRNVKKLQEEGWLEGELNGRRGMFPDNFVKEIKR [M1C], LVDYIVEYDYDAVHDDELTIRVGEIIRNVKKLQEEGWLEGELNGRRGMFPDNFVKEIKR [M1L] is higher in abundance fitness: -0.28 ± 0.15 for the first, 0.015 ± 0.097 for the second.

KVDYIVEYDYDAVHDDELTIRVGEIIRNVKKLQEEGWLEGELNGRRGMFPDNFVKEIKR [M1K] and AVDYIVEYDYDAVHDDELTIRVGEIIRNVKKLQEEGWLEGELNGRRGMFPDNFVKEIKR [M1A] are within error of each other in abundance fitness: 0.142 ± 0.12 for the first, 0.05 ± 0.4 for the second.

WVDYIVEYDYDAVHDDELTIRVGEIIRNVKKLQEEGWLEGELNGRRGMFPDNFVKEIKR [M1W] and EVDYIVEYDYDAVHDDELTIRVGEIIRNVKKLQEEGWLEGELNGRRGMFPDNFVKEIKR [M1E] are within error of each other in abundance fitness: -0.163 ± 0.1 for the first, -0.276 ± 0.23 for the second.

QVDYIVEYDYDAVHDDELTIRVGEIIRNVKKLQEEGWLEGELNGRRGMFPDNFVKEIKR [M1Q] and YVDYIVEYDYDAVHDDELTIRVGEIIRNVKKLQEEGWLEGELNGRRGMFPDNFVKEIKR [M1Y] are within error of each other in abundance fitness: -0.301 ± 0.34 for the first, -0.375 ± 0.37 for the second.

VVDYIVEYDYDAVHDDELTIRVGEIIRNVKKLQEEGWLEGELNGRRGMFPDNFVKEIKR [M1V] and IVDYIVEYDYDAVHDDELTIRVGEIIRNVKKLQEEGWLEGELNGRRGMFPDNFVKEIKR [M1I] are within error of each other in abundance fitness: -0.153 ± 0.15 for the first, 0.078 ± 0.17 for the second.

Compared with SVDYIVEYDYDAVHDDELTIRVGEIIRNVKKLQEEGWLEGELNGRRGMFPDNFVKEIKR [M1S], TVDYIVEYDYDAVHDDELTIRVGEIIRNVKKLQEEGWLEGELNGRRGMFPDNFVKEIKR [M1T] is lower in abundance fitness: 0.072 ± 0.14 for the first, -0.228 ± 0.11 for the second.

HVDYIVEYDYDAVHDDELTIRVGEIIRNVKKLQEEGWLEGELNGRRGMFPDNFVKEIKR [M1H] and FVDYIVEYDYDAVHDDELTIRVGEIIRNVKKLQEEGWLEGELNGRRGMFPDNFVKEIKR [M1F] are within error of each other in abundance fitness: -0.209 ± 0.21 for the first, -0.137 ± 0.38 for the second.

First: MVIYIVEYDYDAVHDDELTIRVGEIIRNVKKLQEEGWLEGELNGRRGMFPDNFVKEIKR [D3I]
Second: MVMYIVEYDYDAVHDDELTIRVGEIIRNVKKLQEEGWLEGELNGRRGMFPDNFVKEIKR [D3M]
The abundance fitness of the first is lower: -0.453 ± 0.094 for the first, -0.135 ± 0.072 for the second.

MVQYIVEYDYDAVHDDELTIRVGEIIRNVKKLQEEGWLEGELNGRRGMFPDNFVKEIKR [D3Q] and MVLYIVEYDYDAVHDDELTIRVGEIIRNVKKLQEEGWLEGELNGRRGMFPDNFVKEIKR [D3L] are within error of each other in abundance fitness: -0.188 ± 0.068 for the first, -0.267 ± 0.051 for the second.

Compared with MVKYIVEYDYDAVHDDELTIRVGEIIRNVKKLQEEGWLEGELNGRRGMFPDNFVKEIKR [D3K], MVEYIVEYDYDAVHDDELTIRVGEIIRNVKKLQEEGWLEGELNGRRGMFPDNFVKEIKR [D3E] is higher in abundance fitness: -0.297 ± 0.079 for the first, 0.014 ± 0.065 for the second.

Going from MVVYIVEYDYDAVHDDELTIRVGEIIRNVKKLQEEGWLEGELNGRRGMFPDNFVKEIKR [D3V] to MVHYIVEYDYDAVHDDELTIRVGEIIRNVKKLQEEGWLEGELNGRRGMFPDNFVKEIKR [D3H], the abundance fitness rises from -0.379 ± 0.067 to -0.188 ± 0.1.

First: MVGYIVEYDYDAVHDDELTIRVGEIIRNVKKLQEEGWLEGELNGRRGMFPDNFVKEIKR [D3G]
Second: MVNYIVEYDYDAVHDDELTIRVGEIIRNVKKLQEEGWLEGELNGRRGMFPDNFVKEIKR [D3N]
The abundance fitness of the first is lower: -0.437 ± 0.065 for the first, 0.012 ± 0.18 for the second.

Going from MVRYIVEYDYDAVHDDELTIRVGEIIRNVKKLQEEGWLEGELNGRRGMFPDNFVKEIKR [D3R] to MVSYIVEYDYDAVHDDELTIRVGEIIRNVKKLQEEGWLEGELNGRRGMFPDNFVKEIKR [D3S], the abundance fitness rises from -0.255 ± 0.046 to -0.048 ± 0.055.

MVCYIVEYDYDAVHDDELTIRVGEIIRNVKKLQEEGWLEGELNGRRGMFPDNFVKEIKR [D3C] and MVAYIVEYDYDAVHDDELTIRVGEIIRNVKKLQEEGWLEGELNGRRGMFPDNFVKEIKR [D3A] are within error of each other in abundance fitness: -0.237 ± 0.085 for the first, -0.232 ± 0.066 for the second.

Variant MVPYIVEYDYDAVHDDELTIRVGEIIRNVKKLQEEGWLEGELNGRRGMFPDNFVKEIKR [D3P] has an abundance fitness of -0.436 ± 0.11.

Source: the Human Domainome abundance scans (Beltran et al. 2025)
